According to the supplement of paper PMC7125110:
± gives the standard error. Variants at the floor of the assay were thinned out.

B1: glmS ribozyme (parent)
chain: AUAAAAGCGCCAGAACUACAGAAAUGUAGUUGACGAGGAGGAGGUUUAUCGAAUUUUCGGCGGAUGCCUCCAAA

Variants of: B1
Assay: self-cleavage kobs at 2500 uM GlcN6P; higher = faster cleavage; RNA array
Conditions: with glucosamine-6-phosphate
Summary of the method: (§1)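 Barcoded glmS ribozyme variants on sequenced MiSeq chips were transcribed in situ by E. coli RNA polymerase and tracked through a hybridised Cy3 probe at 37 °C. Glucosamine-6-phosphate (40 μM to 10 mM) in HEPES/KCl/Mg(OAc)2 buffer was flowed in, and tiles were imaged over ~14 h. Signals were normalised to baseline and to non-cleaving reference variants; per-tile medians were fit to one- or two-exponential decays to give kobs. kcat and KM came from weighted Michaelis–Menten fits across concentrations.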
For AUAAAAGCGCCAGAAUUACAGAAAUGUAGUUGACGAGAAGGAGGUUUAUCGAAUUUUCGGCGGAUACCUCCAAA [C16U G38A G66A], the “self-cleavage kobs at 2500 uM GlcN6P” value was < 1e-05 s⁻¹.
For AUAAAAGCGCCAGAACUACAGAAAUGUAGUUGACGAGGCAGAGGUUUAUCGAAUUUUCGGCGGAUGCCUCCAAA [A39C G40A], the “self-cleavage kobs at 2500 uM GlcN6P” value was 0.000126 ± 3.1e-05 s⁻¹.
For AUAAAAGCGCCAGAAAUACAGAAAUGUAGUUGACGAGGAGGAGGUUUAUCGUAUUUUCGGCGGAUGCCUGCAAA [C16A A52U C70G], the “self-cleavage kobs at 2500 uM GlcN6P” value was 0.0002 ± 9.8e-05 s⁻¹.
With AUAAAAGCGCCAGAACUACAGAAAUGUAGUUGACGAGGAGCAGGAUUAUCGAAUUGUCGGCGGAUGGCUGCAAA [G41C U45A U56G C67G C70G] the “self-cleavage kobs at 2500 uM GlcN6P” value was 0.00118 ± 0.00023 s⁻¹.
In the case of AUAAAAGCGCCAGAACUACAGAAAUGUAAUUGACGAGGUUGAGGUUUAUCGAAUUUUCGGCGGAUGCCUCCAAA [G29A A39U G40U], the “self-cleavage kobs at 2500 uM GlcN6P” value is reported as 0.000177 ± 3.8e-05 s⁻¹.
In the case of AUAAAAGCGCCAGCACUACAGAAAUGUAGUUGACGAGGAGGAGGUUUAUAGAACUUUCGGCGGAUGCCUCCAAA [A14C C50A U54C], the “self-cleavage kobs at 2500 uM GlcN6P” value is reported as < 1e-05 s⁻¹.
For AUAAACGCGCCAGAACUACAGAAAUGUAGUUGACGAGUAGGGGGUUUAUCGAAUUUCCGGCGGAUGCCUCCAAA [A6C G38U A42G U57C], the “self-cleavage kobs at 2500 uM GlcN6P” value was < 1e-05 s⁻¹.
With AUAAAAGCGCCAGAACUACAGAAAUGUAGUUGACUGGGAGGAGGUUUAUCGAAUUUUCGGCGCAUGCCUCCAAA [G35U A36G G63C] the “self-cleavage kobs at 2500 uM GlcN6P” value was < 1e-05 s⁻¹.
In the case of AUAAAAGCGCCAGAACUACAGAAAUGUAGCUGACGAGGAGGAAGUGUAUCGAAUUUUCGGCGGAUGUCUCCAAA [U30C G43A U46G C67U], the “self-cleavage kobs at 2500 uM GlcN6P” value is reported as < 1e-05 s⁻¹.
AUAAAUGCGCCAAAACUACAGAAAUGUAGUUGACCAGGAGGAGGUUUAUCGCAUUUUCGGCGGAUGCCUCCAAA [A6U G13A G35C A52C] was tested, and the “self-cleavage kobs at 2500 uM GlcN6P” value was < 1e-05 s⁻¹.
AUAAAAGCGCCAGAACUACAGAAAUGUAGUUGAGGAGGAGGACGUUUAUCGAUAUUUCGGCGGAUGCCUCCAAA [C34G G43C A53U U54A] was tested, and the “self-cleavage kobs at 2500 uM GlcN6P” value was < 1e-05 s⁻¹.
For AUAAAAGCGCCAGAACUACAGAAAUGUAGUUGACGAGGAGGUGGUUUAUCGUAUCUUCGGCGGAUGCCUGCAAA [A42U A52U U55C C70G], the “self-cleavage kobs at 2500 uM GlcN6P” value was < 1e-05 s⁻¹.
For AUAAAAGCGUCAGGACUACAGAAAUGUAGUUGACGAGGAGGAGUUUUAUCGAAUUUUCGGCGGAUGCCUCCAAA [C10U A14G G44U], the “self-cleavage kobs at 2500 uM GlcN6P” value was < 1e-05 s⁻¹.
With AUAAAAGCGCCAGAACUACAGAAAUGUAGUUGACGAGGAGGAAGUUUAUCGAGUUUUCGUCGGAUGCCUUCAAA [G43A A53G G60U C70U] the “self-cleavage kobs at 2500 uM GlcN6P” value was < 1e-05 s⁻¹.
AUAAAAGAGCCACAACUACAGAAAUGUAGUUGACGAGGAGGAGGUUUAUCGAAUUUUCGGCGGACGCCUCCAAA [C8A G13C U65C] was tested, and the “self-cleavage kobs at 2500 uM GlcN6P” value was < 1e-05 s⁻¹.
In the case of AUAAAAGCGCCAGAACUACAGAAAUGUAGUGGACGAGGAGGAGGUUUAUCGAAUUUUCGGCGGAUGCGUGCAAA [U31G C68G C70G], the “self-cleavage kobs at 2500 uM GlcN6P” value is reported as < 1e-05 s⁻¹.
In the case of AUAAAAGCGCCAGAACUACAGAAAUGUAGUUGACGAGGAGCAGGUUUUUCGCUUUUUCGGCGGAUGCCUCCAAA [G41C A48U A52C A53U], the “self-cleavage kobs at 2500 uM GlcN6P” value is reported as < 1e-05 s⁻¹.
In the case of AUAAAAGCGCCUGAACUACAGAAAUGUAGUUGACGAGGAGCAGGUGUAUCGAAUUUUCGGCGGAUGCAUCCAAA [A12U G41C U46G C68A], the “self-cleavage kobs at 2500 uM GlcN6P” value is reported as < 1e-05 s⁻¹.
AUAAAAGCGCCAGAACUACAGAAAUGUAGUUGACGCGGAGGAGGUUUAUCCAAUUUUCGGCGGAUGCCUCGAAA [A36C G51C C71G] was tested, and the “self-cleavage kobs at 2500 uM GlcN6P” value was < 1e-05 s⁻¹.
For AUAAAAGCGCCAGAAGUACAGAAAUGUAGUUGACGAGGAGGAGGUUUAUCAAAUUUUCGACGAAUGCCUACAAA [C16G G51A G60A G63A C70A], the “self-cleavage kobs at 2500 uM GlcN6P” value was 4.28e-05 ± 1.9e-05 s⁻¹.
With AUAAAAGCGCUAGAACUACAGAAAUGUAGUUGACGAGGAGGAGGUUUACCGAAUUUUCGGCGCAUGCCUCCAAA [C11U U49C G63C] the “self-cleavage kobs at 2500 uM GlcN6P” value was < 1e-05 s⁻¹.
AUAAAAGCCCCAGAUCUACAGAAAUGUAGUUGACGAGGAGGAGGUUGAUCCAAUUUUCGGCGCAUGCCUCCAAA [G9C A15U U47G G51C G63C] was tested, and the “self-cleavage kobs at 2500 uM GlcN6P” value was < 1e-05 s⁻¹.
In the case of AUAAAAGCGCCAGAAGUACAGAAAUGUAGUUGACGAGGAGUAGGUUUAUGGAAUUUUCGGCGGAUGCCUCCAAA [C16G G41U C50G], the “self-cleavage kobs at 2500 uM GlcN6P” value is reported as < 1e-05 s⁻¹.
With AUAAAAGCGGCAGAGCUACAGAAAUGUAGUUGAAGAAGAGGAGGUUUAUCGAAUUUUCGGCGGAUGCCUCCAAA [C10G A15G C34A G37A] the “self-cleavage kobs at 2500 uM GlcN6P” value was < 1e-05 s⁻¹.
With AUAAAAGCGCCAGAACUACAGAAAUGUAGUUGCCGAUGAGGGGUUUUAUCGAAUUUUCGGCGGGUUCCUCCAAA [A33C G37U A42G G44U A64G G66U] the “self-cleavage kobs at 2500 uM GlcN6P” value was < 1e-05 s⁻¹.
AUAAAAGCGCCAGAAGUACAGAAAUGUAGAUGACUCGGAGGAGGUUUAUCGAUUUUUCGGCGGAUGCCUCCAAA [C16G U30A G35U A36C A53U] was tested, and the “self-cleavage kobs at 2500 uM GlcN6P” value was < 1e-05 s⁻¹.
For AUAAAAGCGACAGAACUACAGAAAUGUAGUUGACGAGGAGGAGGUUUAUCGAAUUUUCCGCGGAUAACUCCAAA [C10A G59C G66A C67A], the “self-cleavage kobs at 2500 uM GlcN6P” value was < 1e-05 s⁻¹.
For AUAAAAGCGCCACAACUACAGAAAUGUAGUUGAGGAGGAGGAGGUUUACCGAAUUUUCGGCGGAUGCCUCAAAA [G13C C34G U49C C71A], the “self-cleavage kobs at 2500 uM GlcN6P” value was < 1e-05 s⁻¹.
AUAAAAGCGCCAGAACUACAGAAAUGUAGUCCACGAUGAGCAGGUAUAUCGAUUAUUCGGCGGCUGCCUCCAAA [U31C G32C G37U G41C U46A A53U U55A A64C] was tested, and the “self-cleavage kobs at 2500 uM GlcN6P” value was < 1e-05 s⁻¹.
In the case of AUAAAAGCGACAGAACUACAGAAAUGUAGUUGACGAGCAGGAGGUUUAUCGAAUUUUGGGCGGAUGCCUCCAAA [C10A G38C C58G], the “self-cleavage kobs at 2500 uM GlcN6P” value is reported as < 1e-05 s⁻¹.
For AUAAAAGCGCCAGAACUACAGAAAUGUAGUUGACGAGGAGGAGGUUUAUCGGAUUUUCGGAGGAUGUCUCCAAA [A52G C61A C67U], the “self-cleavage kobs at 2500 uM GlcN6P” value was 0.000197 ± 7.1e-05 s⁻¹.
With AUAAAAGCCCCAGAACUACAGAAAUGUAGUUGACGAGGAUGAGGUUUAUCUUAUUUUCGGCGGAUGCCUCCAAA [G9C G40U G51U A52U] the “self-cleavage kobs at 2500 uM GlcN6P” value was < 1e-05 s⁻¹.
In the case of AUAAAGGCGGCAGAACUACAGAAAUGUAGAUUACGAGGAGGAGGUUUAUCGAAUUGUCGGCGGAUGCCUCCAAA [A6G C10G U30A G32U U56G], the “self-cleavage kobs at 2500 uM GlcN6P” value is reported as < 1e-05 s⁻¹.
In the case of AUAAAAGCGCCAGAACUACAGAAAUGUAGUUGACGAGGAGGAGGUUUAUAGAAUAUUCGGCGGAUGCCUUCAAA [C50A U55A C70U], the “self-cleavage kobs at 2500 uM GlcN6P” value is reported as 5.24e-05 ± 2.1e-05 s⁻¹.

Variants of: B1
Assay: self-cleavage kobs at 10000 uM GlcN6P; higher = faster cleavage; RNA array
Conditions: with glucosamine-6-phosphate
Summary of the method: as §1
In the case of AUAAAAGCGCCUGAACUACAGAAAUGUAGUUGACGAGGAGCAGGUGUAUCGAAUUUUCGGCGGAUGCAUCCAAA [A12U G41C U46G C68A], the “self-cleavage kobs at 10000 uM GlcN6P” value is reported as < 1e-05 s⁻¹.
With AUAAAAGCGCCAGAACUACAGAAAUGUAGUUGACGCGGAGGAGGUUUAUCCAAUUUUCGGCGGAUGCCUCGAAA [A36C G51C C71G] the “self-cleavage kobs at 10000 uM GlcN6P” value was < 1e-05 s⁻¹.
With AUAAAAGCGCCAGAAGUACAGAAAUGUAGUUGACGAGGAGUAGGUUUAUGGAAUUUUCGGCGGAUGCCUCCAAA [C16G G41U C50G] the “self-cleavage kobs at 10000 uM GlcN6P” value was < 1e-05 s⁻¹.
